The target in series [1] is MLL1 third plant homeodomain (PHD3) (UniProt Q03164). Put plainly: ITC; conditions not given (table S1, fig. S2).
For a further series, the system named is H3(1-13)K4me3 peptide. Put plainly: ITC. The settings on record: NMR titrations: 20 mM KHPO4 pH 7, 40 mM KCl, 1 mM DTT, 289.15 K as printed (table S2 says 298.15 K for Kd); structures of complexes: 40 mM KCl, 20 mM KH2PO4 pH ….
In series [2] the target is Histone H3 H3K4me3 (Homo sapiens) (UniProt P68431). As to conditions: cited from earlier work.
Series [3] concerns the target Cyp33 RRM∆α/MLL1 PHD3 complex (UniProt Q9UNP9). Put plainly: ITC; conditions not given (table S1, fig. S2).

The text below walks through data of publication PMC10115415.

Chain of MLL1 third plant homeodomain (PHD3) (Q03164 1564-1627): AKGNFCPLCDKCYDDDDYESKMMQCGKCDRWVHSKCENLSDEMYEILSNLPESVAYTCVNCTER
Chain of MLL1 PHD3-BRD (Q03164 1566-1784): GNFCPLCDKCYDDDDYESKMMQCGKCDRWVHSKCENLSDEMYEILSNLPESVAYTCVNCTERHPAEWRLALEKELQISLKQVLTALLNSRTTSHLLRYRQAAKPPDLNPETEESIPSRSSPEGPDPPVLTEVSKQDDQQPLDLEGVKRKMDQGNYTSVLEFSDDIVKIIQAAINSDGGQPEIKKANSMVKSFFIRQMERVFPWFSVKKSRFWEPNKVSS

For the substance “Cyp33 RNA recognition motif (RRM) with the C-terminal extension (α3 helix) (from UniProt Q9UNP9 1-114) (domain or fragment)”, the Kd in series [1] came to 4.6 µM.

Cyp33 K83A mutant had a Kd in series [1] of 7 µM.

In series [1], “Cyp33 W101A, L102A, F105A triple mutant (Cyp33-WLF)” returned a Kd of 7 µM.

As for “UAAUGUUAAUGUUAAUGUUAAUGU [4x UAAUGU repeat RNA]”, the Kd in the series on H3(1-13)K4me3 peptide is 30 µM.

In series [1], Cyp33 KRK83-88A triple mutant came in with a Kd of 7 µM.

Cyp33 RK86-88A double mutant displayed an equilibrium dissociation constant (Kd) in series [1] of 7 µM.

As for MLL1 PHD3-BRD (from UniProt Q03164), the Kd in series [2] was 4 µM.

As to “Histone H3 lysine N6-trimethylated peptide (H3K4me3) (from UniProt P68431 2-14)”, the Kd in series [3] stood at 24 µM.
